Data published in US20240245796A1 (PROFOUNDBIO US, published 2024).

What was measured:
[1] = target: T1, human FOLR1 protein, His Tag (ACRO FO1-H52H1) (human, UniProt P15328 25-233); assay: ELISA, coated hFOLR1-His, supernatant 1x
T1 construct: Bought protein coated on ELISA plates; not shown: His tag

[2] = target: T1, human FOLR1 protein, His Tag (ACRO …); assay: ELISA, coated hFOLR1-His, supernatant 5x
[3] = target: T1, human FOLR1 protein, His Tag (ACRO …); assay: ELISA, coated hFOLR1-His, supernatant 25x
[4] = target: T1, human FOLR1 protein, His Tag (ACRO …); assay: ELISA, coated hFOLR1-His, HEK293 supernatant
[5] = target: T2, cynomolgus FOLR1 protein, His Tag (ACRO F01-C52H8) (cynomolgus, UniProt A0A2K5U044 25-233); assay: ELISA, coated cyno FOLR1-His, supernatant 1x
T2 construct: Bought protein coated on ELISA plates; also called Cynomolgus/Rhesus macaque FOLR1, Protein, His Tag; not shown: His tag

[6] = target: T2, cynomolgus FOLR1 protein, His Tag (ACRO …); assay: ELISA, coated cyno FOLR1-His, supernatant 5x
[7] = target: T2, cynomolgus FOLR1 protein, His Tag (ACRO …); assay: ELISA, coated cyno FOLR1-His, supernatant 25x
[8] = target: T1, human FOLR1 protein, His Tag (ACRO …); assay: ratio of OD450 on hFOLR1 to OD450 on anti-human IgG Fc

T1 sequence (P15328 25-233 limits assumed): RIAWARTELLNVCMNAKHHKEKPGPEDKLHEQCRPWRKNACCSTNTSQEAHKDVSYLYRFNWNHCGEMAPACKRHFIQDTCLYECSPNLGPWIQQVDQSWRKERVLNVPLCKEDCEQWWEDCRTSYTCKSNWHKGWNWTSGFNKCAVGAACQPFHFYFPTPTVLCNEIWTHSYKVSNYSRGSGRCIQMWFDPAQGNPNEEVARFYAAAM
T2 sequence (A0A2K5U044 entry or part of it): as the sequence (P15328 25-233 limits assumed) above, with I2T, W4R, R37K, A146P, H171Y counted along it

OD450 [1] [OD450]	OD450 [2] [OD450]	OD450 [3] [OD450]	OD450 [4] [OD450]	OD450 [5] [OD450]	OD450 [6] [OD450]	OD450 [7] [OD450]	Target binding/IgG level [8]	Binder
0.811	0.382	0.163	2.39	1.35	1.11	0.924	1.02	F40 (antibody, V domains shown, Tested as full-length IgG with an IgG1 Fc from HEK293, as supernatant or purified; also called clone F40; anti-FOLR1 antibody F40) VH: EVQLLESGGGVVQPGRSLRLSCAASGFTFSSYAMHWVRQAPGKGLEWVAVISYDGSNKYYADSVKGRFIISRDNSKNTVYLQMNSLRAEDTAVYYCARPTYVFTYTGSSFDYWGQGTQVTVSS VL: DIQVTQSPSSLSASLGDTVSITCRASRGLTDSVAWYQQKPGQAPKLLIYAASTLQSGVPSRFGGSGSGSYFTLTITSLQPEDVATYYCQNYKSAPWTFGQGTKVEIK
1.66	1.45	1.18	2.43	1.38	1.26	0.994	1.08	F1 (antibody, V domains shown, also called clone F1; anti-FOLR1 antibody F1) VH: EVQLLESGGGVVQPGRSLRLSCAASGFTFSSYGMHWVRQAPGKGLEWVAVISYDGSNKYYADSVKGRFTISRDNSKNTLYLQMNSLRAEDTAVYYCARPRAYYGAYGSSFDYWGQGTQVTVSS VL: EIVMTQSPSSVSASVGDRVAITCRASQGISSWLAWYQQKPGKAPKLLIYAASSLQSGVPSRFSGSGSGTDFTLTISSLQPEDFATYYCQQSYSTPLTFGGGTKVDIK
1.56	1.42	1.17	2.35	1.26	1.21	0.933	1.12	F112 (antibody, V domains shown, Tested as full-length IgG with an IgG1 Fc from HEK293, as supernatant or purified; also called clone F112; anti-FOLR1 antibody F112) VH: EVQLLESGGGVVQPGRSLRLSCAASGFTFSSYGMHWVRQAPGKGLEWVAVISYDGSNKYYADSVKGRFTISRHNSKNTLYLQMNSLRAEDTAVYYCARPRAYYGAYGSSFDYWGQGTQVTVSS VL: EIVMTQSPSSVSASVGDRVAITCRASQGISSWLAWYQQKPGKAPKLLIYAASSLQSGVPSRFSGSGSGTDFTLTISSLQPEDFATYYCQQSYSTPLTFGGGTKVDIK
1.61	1.53	1.18	2.3	1.16	1.03	0.875	1.48	F100 (antibody, V domains shown, Tested as full-length IgG with an IgG1 Fc from HEK293, as supernatant or purified; also called clone F100; anti-FOLR1 antibody F100) VH: EVQLLESGGGVVQPGRSLRLSCAASGFTFSSYGMHWVRQAPGKGLEWVAVISYDGSNKYYADSVKGRFTISRPNSKNTLYLQMNSLRAEDTAVYYCARPRAYYGAYGSSFDYWGQGTQVTVSS VL: EIVMTQSPSSVSASVGDRVAITCRASQGISSWLAWYQQKPGKAPKLLIYAASSLQSGVPSRFSGSGSGTDFTLTISSLQPEDFATYYCQQSYSTPLTFGGGTKVDIK
1.64	1.69	1.83	2.41	1.14	1.14	1.17	1.2	F138 (antibody, V domains shown, Tested as full-length IgG with an IgG1 Fc, HEK293 supernatant; also called clone F138; anti-FOLR1 antibody F138) VH: EVQLLESGGGVVQPGRSLRLSCAASGFTFSSYGMHWVRQAPGKGLEWVAVISYDGSNKYYADSVKGRFTISTHNSKNTLYLQMNSLRAEDTAVYYCARPRAYYGAYGSSFDYWGQGTQVTVSS VL: EIVMTQSPSSVSASVGDRVAITCRASQGISSWLAWYQQKPGKAPKLLIYAASSLQSGVPSRFSGSGSGTDFTLTISSLQPEDFATYYCQQSYSTPLTFGGGTKVDIK
1.56	1.59	1.29	2.54	1.15	1.04	0.908	1.12	F48 (antibody, V domains shown, Tested as full-length IgG with an IgG1 Fc from HEK293, as supernatant or purified; also called clone F48; anti-FOLR1 antibody F48) VH: EVQLLESGGGVVQPGRSLRLSCAASGFTFSSYGMHWVRQAPGKGLEWVAVISYDGSNKYYADSVKGRFTISRDNSKNTLYLHMNSLRAEDTAVYYCARPRAYYGAYGSSFDYWGQGTQVTVSS VL: EIVMTQSPSSVSASVGDRVAITCRASQGISSWLAWYQQKPGKAPKLLIYAASSLQSGVPSRFSGSGSGTDFTLTISSLQPEDFATYYCQQSYSTPLTFGGGTKVDIK
1.67	1.65	1.31	2.45	0.896	1.28	1.06	1.12	F8 (antibody, V domains shown, Tested as full-length IgG with an IgG1 Fc from HEK293, as supernatant or purified; also called clone F8; anti-FOLR1 antibody F8) VH: EVQLLESGGGVVQHGRSLRLSCAASGFTFSSYGMHWVRQAPGKGLEWVAVISYDGSNKYYADSVKGRFTISRDNSKNTLYLQMNSLRAEDTAVYYCARPRAYYGAYGSSFDYWGQGTQVTVSS VL: EIVMTQSPSSVSASVGDRVAITCRASQGISSWLAWYQQKPGKAPKLLIYAASSLQSGVPSRFSGSGSGTDFTLTISSLQPEDFATYYCQQSYSTPLTFGGGTKVDIK
1.64	1.51	1.48	2.43	1.24	1.21	1.02	1.21	F26 (antibody, V domains shown, Tested as full-length IgG with an IgG1 Fc from HEK293, as supernatant or purified; also called clone F26; anti-FOLR1 antibody F26) VH: EVQLLESGGGVVQRGRSLRLSCAASGFTFSSYGMHWVRQAPGKGLEWVAVISYDGSNKYYADSVKGRFTISRDNSKNTLYLPMNSLRAEDTAVYYCARPRAYYGAYGSSFDYWGQGTQVTVSS VL: EIVMTQSPSSVSASVGDRVAITCRASQGISSWLAWYQQKPGKAPKLLIYAASSLQSGVPSRFSGSGSGTDFTLTISSLQPEDFATYYCQQSYSTPLTFGGGTKVDIK
1.72	1.47	1.33	2.32	1.36	1.3	1.07	1.06	F123 (antibody, V domains shown, Tested as full-length IgG with an IgG1 Fc from HEK293, as supernatant or purified; also called clone F123; anti-FOLR1 antibody F123) VH: EVQLLESGGGVVQPERSLRLSCAASGFTFSSYGMHWVRQAPGKGLEWVAVISYDGSNKYYADSVKGRFTISRANSKNTLYLQMNSLRAEDTAVYYCARPRAYYGAYGSSFDYWGQGTQVTVSS VL: EIVMTQSPSSVSASVGDRVAITCRASQGISSWLAWYQQKPGKAPKLLIYAASSLQSGVPSRFSGSGSGTDFTLTISSLQPEDFATYYCQQSYSTPLTFGGGTKVDIK
